Data on 4 variants can be found in IntAct's records for PubMed 19037309.

First the molecules themselves.
B1: DELLA protein GAI (Arabidopsis thaliana (Mouse-ear cress)), Q9LQT8 (parent)
chain: MKRDHHHHHHQDKKTMMMNEEDDGNGMDELLAVLGYKVRSSEMADVAQKLEQLEVMMSNVQEDDLSQLATETVHYNPAELYTWLDSMLTDLNPPSSNAEYDLKAIPGDAILNQFAIDSASSSNQGGGGDTYTTNKRLKCSNGVVETTTATAESTRHVVLVDSQENGVRLVHALLACAEAVQKENLTVAEALVKQIGFLAVSQIGAMRKVATYFAEALARRIYRLSPSQSPIDHSLSDTLQMHFYETCPYLKFAHFTANQAILEAFQGKKRVHVIDFSMSQGLQWPALMQALALRPGGPPVFRLTGIGPPAPDNFDYLHEVGCKLAHLAEAIHVEFEYRGFVANTLADLDASMLELRPSEIESVAVNSVFELHKLLGRPGAIDKVLGVVNQIKPEIFTVVEQESNHNSPIFLDRFTESLHYYSTLFDSLEGVPSGQDKVMSEVYLGKQICNVVACDGPDRVERHETLSQWRNRFGSAGFAAAHIGSNAFKQASMLLALFNGGEGYRVEESDGCLMLGWHTRPLIATSAWKLSTN
partner: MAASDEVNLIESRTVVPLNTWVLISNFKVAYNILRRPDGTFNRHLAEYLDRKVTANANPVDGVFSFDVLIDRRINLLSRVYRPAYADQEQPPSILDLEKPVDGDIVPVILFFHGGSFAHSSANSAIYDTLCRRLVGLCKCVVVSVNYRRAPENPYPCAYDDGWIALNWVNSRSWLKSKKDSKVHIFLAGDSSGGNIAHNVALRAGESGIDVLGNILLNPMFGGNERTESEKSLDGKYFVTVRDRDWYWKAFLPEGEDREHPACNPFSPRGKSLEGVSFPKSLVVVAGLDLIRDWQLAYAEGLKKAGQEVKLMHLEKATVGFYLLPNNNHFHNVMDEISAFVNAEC

Variants of B1 are the subject of the experiment. The conditions noted are these: with gid1a_arath GID1A.
For the variant Y36A;M43A, the “effect of a mutation on the interaction” value is recorded as “disrupting interaction”.
For E51R;E54R the value was “disrupting interaction”; for L31A;V38A, “disrupting interaction”; for Y36A, “decreasing interaction”.
